The target of this experiment is T1, His6-cMyc4-tagged VPS33B (human, UniProt Q9H267 1-617).
T1 construct: VPS33B, human, UniProt Q9H267; construct pUPE.02.13-VPS33B; also called pUPE.02.13-VPS33B; recombinant tagged VPS33B; source: HEK293 cells stably expressing Epstein-Barr virus Nuclear Antigen I, co-transfected with VIPAR; in lysate, then co-purified with VIPAR (Streptactin Sepharose, Superdex 200); not shown: His6-cMyc4, N-terminal, kept
T1 sequence (looked up): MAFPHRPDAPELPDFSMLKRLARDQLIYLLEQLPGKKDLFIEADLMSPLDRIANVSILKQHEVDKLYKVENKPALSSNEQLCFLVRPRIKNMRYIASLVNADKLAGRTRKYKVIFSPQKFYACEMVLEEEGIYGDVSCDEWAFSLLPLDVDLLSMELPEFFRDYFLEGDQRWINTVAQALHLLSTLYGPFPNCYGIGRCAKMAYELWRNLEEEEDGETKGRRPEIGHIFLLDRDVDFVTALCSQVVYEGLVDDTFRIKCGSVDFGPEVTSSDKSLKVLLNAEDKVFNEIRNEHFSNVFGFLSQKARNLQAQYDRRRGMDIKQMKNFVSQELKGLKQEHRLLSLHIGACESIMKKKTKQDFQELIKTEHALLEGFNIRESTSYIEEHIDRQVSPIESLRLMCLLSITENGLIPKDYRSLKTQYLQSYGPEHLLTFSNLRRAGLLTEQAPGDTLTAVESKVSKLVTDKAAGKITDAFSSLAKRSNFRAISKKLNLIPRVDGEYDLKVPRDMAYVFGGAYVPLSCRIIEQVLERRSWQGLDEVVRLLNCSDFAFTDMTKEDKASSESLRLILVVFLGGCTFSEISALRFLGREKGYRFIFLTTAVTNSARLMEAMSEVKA
The experiment is described as follows: affinity purification with mass spectrometry; His6-StrepII3-VIPAR and His6-cMyc4-VPS33B coexpressed in HEK293 cells; soluble lysate (0.3% NP-40, NaCl to 300 mM) on Streptactin Sepharose, eluted with 2.5 mM desthiobiotin, Superdex 200; purified sample analysed by LC-MS/MS. Conditions: partners not purified.

B1: His6-StrepII3-tagged VIPAR (natural protein, human, UniProt Q9H9C1 1-493, looked up)
chain: MNRTKGDEEEYWNSSKFKAFTFDDEDDELSQLKESKRAVNSLRDFVDDDDDDDLERVSWSGEPVGSISWSIRETAGNSGSTHEGREQLKSRNSFSSYAQLPKPTSTYSLSSFFRGRTRPGSFQSLSDALSDTPAKSYAPELGRPKGEYRDYSNDWSPSDTVRRLRKGKVCSLERFRSLQDKLQLLEEAVSMHDGNVITAVLIFLKRTLSKEILFRELEVRQVALRHLIHFLKEIGDQKLLLDLFRFLDRTEELALSHYREHLNIQDPDKRKEFLKTCVGLPFSAEDSAHIQDHYTLLERQIIIEANDRHLESAGQTEIFRKHPRKASILNMPLVTTLFYSCFYHYTEAEGTFSSPVNLKKTFKIPDKQYVLTALAARAKLRAWNDVDALFTTKNWLGYTKKRAPIGFHRVVEILHKNNAPVQILQEYVNLVEDVDTKLNLATKFKCHDVVIDTYRDLKDRQQLLAYRSKVDKGSAEEEKIDALLSSSQIRWKN
notes: VIPAR (VIPAS39), human, UniProt Q9H9C1; construct pUPE.02.09-VIPAR; also called pUPE.02.09-VIPAR; recombinant tagged VIPAR; source: HEK293 cells stably expressing Epstein-Barr virus Nuclear Antigen I, co-transfected with VPS33B; in lysate, then purified (Streptactin Sepharose, Superdex 200); not shown: His6-StrepII3, N-terminal, kept
As to B1, the binding result is “binds”.

The record behind these values is PMC4961739, “Regulation of post-Golgi LH3 trafficking is essential for collagen homeostasis” (Nature Communications, 2016).
